# Laboratory results taken from US20250018014A1, “METHOD FOR TREATING AND/OR PREVENTING REGNASE-1-RELATED DISEASE” (OSAKA UNIVERSITY, priority 2018, published 2025).
# T1: C-terminal human Regnase-1 (amino acids 301 to 599) with N-terminal FLAG tag and C-terminal BirA recognition … (human, UniProt Q5D1E8 301-599)
# T1 sequence: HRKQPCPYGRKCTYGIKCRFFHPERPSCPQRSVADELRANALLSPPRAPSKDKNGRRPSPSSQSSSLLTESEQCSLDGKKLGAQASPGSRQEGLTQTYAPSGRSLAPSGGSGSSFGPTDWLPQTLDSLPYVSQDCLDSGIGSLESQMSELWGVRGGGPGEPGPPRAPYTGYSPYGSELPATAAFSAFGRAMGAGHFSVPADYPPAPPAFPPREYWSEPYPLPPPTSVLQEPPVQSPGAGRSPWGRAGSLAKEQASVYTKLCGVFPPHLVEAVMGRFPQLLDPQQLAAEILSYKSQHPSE
# T2: full-length human Regnase-1 with a FLAG tag on the N-terminal side and a biotin ligase BirA recognition … (human, UniProt Q5D1E8 1-599, biotinylated at the BirA recognition sequence when required)
# T2 sequence: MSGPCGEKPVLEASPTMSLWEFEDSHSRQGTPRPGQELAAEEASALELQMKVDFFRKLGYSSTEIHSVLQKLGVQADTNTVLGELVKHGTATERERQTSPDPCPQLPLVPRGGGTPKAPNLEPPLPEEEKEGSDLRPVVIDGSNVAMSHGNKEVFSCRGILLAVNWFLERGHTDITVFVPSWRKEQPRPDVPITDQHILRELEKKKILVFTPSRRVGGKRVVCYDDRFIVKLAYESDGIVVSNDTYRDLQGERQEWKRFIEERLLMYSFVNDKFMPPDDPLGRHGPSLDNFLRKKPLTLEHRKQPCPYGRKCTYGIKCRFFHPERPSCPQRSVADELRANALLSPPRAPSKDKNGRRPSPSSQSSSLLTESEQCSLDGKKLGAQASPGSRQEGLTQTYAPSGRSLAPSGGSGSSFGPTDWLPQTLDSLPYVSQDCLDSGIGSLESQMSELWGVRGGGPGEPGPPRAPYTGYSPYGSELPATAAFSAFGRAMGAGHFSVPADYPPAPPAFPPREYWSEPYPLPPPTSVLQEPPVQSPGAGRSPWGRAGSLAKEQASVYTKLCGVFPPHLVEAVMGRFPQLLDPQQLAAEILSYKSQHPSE
# T3: C-terminal domain-deleted human Regnase-1 (amino acids 1 to 546) with N-terminal FLAG tag and C-terminal BirA … (human, UniProt Q5D1E8 1-546)
# T3 sequence: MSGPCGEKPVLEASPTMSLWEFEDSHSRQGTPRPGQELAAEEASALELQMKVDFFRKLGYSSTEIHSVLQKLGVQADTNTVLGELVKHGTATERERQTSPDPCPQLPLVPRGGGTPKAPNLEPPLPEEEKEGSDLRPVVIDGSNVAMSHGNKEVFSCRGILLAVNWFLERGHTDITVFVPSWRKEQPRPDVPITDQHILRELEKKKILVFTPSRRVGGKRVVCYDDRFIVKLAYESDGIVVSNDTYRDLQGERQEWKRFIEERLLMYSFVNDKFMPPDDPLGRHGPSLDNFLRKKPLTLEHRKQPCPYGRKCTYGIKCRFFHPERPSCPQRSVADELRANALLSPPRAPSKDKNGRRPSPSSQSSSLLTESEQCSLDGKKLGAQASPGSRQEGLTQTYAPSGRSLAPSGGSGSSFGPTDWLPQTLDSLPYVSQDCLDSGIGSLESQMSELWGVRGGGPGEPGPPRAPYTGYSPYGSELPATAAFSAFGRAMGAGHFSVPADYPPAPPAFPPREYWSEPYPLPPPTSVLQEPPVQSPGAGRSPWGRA
# Key:
# Test in all cases: cell-based or functional assay
# [1] = target: T1, C-terminal human Regnase-1 (amino acids …)
# [2] = target: T2, full-length human Regnase-1 with a FLAG …
# [3] = target: T3, C-terminal domain-deleted human …
# [4] = target: T1, C-terminal human Regnase-1 (amino acids …); remark: listed apart in the source
# [5] = target: T2, full-length human Regnase-1 with a FLAG …; remark: listed apart in the source
# [6] = target: T3, C-terminal domain-deleted human …; remark: listed apart in the source
"50% inhibition concentration, Regnase-1 phosphorylation by TBK1 (AlphaScreen) [1]","50% inhibition concentration, Regnase-1 phosphorylation by TBK1 (AlphaScreen) [2]","50% inhibition concentration, Regnase-1 phosphorylation by TBK1 (AlphaScreen) [3]","50% inhibition concentration, Regnase-1 phosphorylation by IKKβ (AlphaScreen) [4]","50% inhibition concentration, Regnase-1 phosphorylation by IKKβ (AlphaScreen) [5]","50% inhibition concentration, Regnase-1 phosphorylation by IKKβ (AlphaScreen) [6]",Binder
5.8 µM,3.7 µM,4.6 µM,10.1 µM,5.4 µM,12.6 µM,"XVFYKIWYNWD (HELM PEPTIDE1{[meA].V.F.Y.K.I.W.Y.N.W.D.[C1CCN([*:1])C1]}$PEPTIDE1,PEPTIDE1,1:R1-11:R3$$$V2.0; SMILES CC[C@H](C)[C@@H]1NC(=O)[C@H](CCCCN)NC(=O)[C@H](Cc2ccc(O)cc2)NC(=O)[C@H](Cc2ccccc2)NC(=O)[C@H](C(C)C)NC(=O)[C@H](C)N(C)C(=O)C[C@@H](C(=O)N2CCCC2)NC(=O)[C@H](Cc2c[nH]c3ccccc23)NC(=O)[C@H](CC(N)=O)NC(=O)[C@H](Cc2ccc(O)cc2)NC(=O)[C@H](Cc2c[nH]c3ccccc23)NC1=O) [PP19]"
0.9 µM,0.6 µM,1.8 µM,0.5 µM,0.4 µM,0.2 µM,"XDIWFDYWDYD (HELM PEPTIDE1{[meA].D.I.W.F.D.Y.W.D.Y.D.[C1CCN([*:1])C1]}$PEPTIDE1,PEPTIDE1,1:R1-11:R3$$$V2.0; SMILES CC[C@H](C)[C@@H]1NC(=O)[C@H](CC(=O)O)NC(=O)[C@H](C)N(C)C(=O)C[C@@H](C(=O)N2CCCC2)NC(=O)[C@H](Cc2ccc(O)cc2)NC(=O)[C@H](CC(=O)O)NC(=O)[C@H](Cc2c[nH]c3ccccc23)NC(=O)[C@H](Cc2ccc(O)cc2)NC(=O)[C@H](CC(=O)O)NC(=O)[C@H](Cc2ccccc2)NC(=O)[C@H](Cc2c[nH]c3ccccc23)NC1=O) [PP18]"
> 62.1 µM,38.5 µM,> 62.1 µM,> 62.1 µM,24.7 µM,> 62.1 µM,"XKFWIHHSFED (HELM PEPTIDE1{[meA].K.F.W.I.H.H.S.F.E.D.[C1CCN([*:1])C1]}$PEPTIDE1,PEPTIDE1,1:R1-11:R3$$$V2.0; SMILES CC[C@H](C)[C@@H]1NC(=O)[C@H](Cc2c[nH]c3ccccc23)NC(=O)[C@H](Cc2ccccc2)NC(=O)[C@H](CCCCN)NC(=O)[C@H](C)N(C)C(=O)C[C@@H](C(=O)N2CCCC2)NC(=O)[C@H](CCC(=O)O)NC(=O)[C@H](Cc2ccccc2)NC(=O)[C@H](CO)NC(=O)[C@H](Cc2c[nH]cn2)NC(=O)[C@H](Cc2c[nH]cn2)NC1=O) [PP20]"

# The remaining lines, values behind:
Binder,"50% inhibition concentration, Regnase-1 phosphorylation by TBK1 (AlphaScreen) [1]","50% inhibition concentration, Regnase-1 phosphorylation by TBK1 (AlphaScreen) [2]","50% inhibition concentration, Regnase-1 phosphorylation by TBK1 (AlphaScreen) [3]","50% inhibition concentration, Regnase-1 phosphorylation by IKKβ (AlphaScreen) [4]","50% inhibition concentration, Regnase-1 phosphorylation by IKKβ (AlphaScreen) [5]","50% inhibition concentration, Regnase-1 phosphorylation by IKKβ (AlphaScreen) [6]"
"XRFGVWSWIYPD (HELM PEPTIDE1{[meA].R.F.G.V.W.S.W.I.Y.P.D.[C1CCN([*:1])C1]}$PEPTIDE1,PEPTIDE1,1:R1-12:R3$$$V2.0; SMILES CC[C@H](C)[C@@H]1NC(=O)[C@H](Cc2c[nH]c3ccccc23)NC(=O)[C@H](CO)NC(=O)[C@H](Cc2c[nH]c3ccccc23)NC(=O)[C@H](C(C)C)NC(=O)CNC(=O)[C@H](Cc2ccccc2)NC(=O)[C@H](CCCNC(=N)N)NC(=O)[C@H](C)N(C)C(=O)C[C@@H](C(=O)N2CCCC2)NC(=O)[C@@H]2CCCN2C(=O)[C@H](Cc2ccc(O)cc2)NC1=O) [PP14]",6.8 µM,3.1 µM,5.2 µM,6.5 µM,1.6 µM,9 µM
"XDIWFDYWDWD (HELM PEPTIDE1{[meA].D.I.W.F.D.Y.W.D.W.D.[C1CCN([*:1])C1]}$PEPTIDE1,PEPTIDE1,1:R1-11:R3$$$V2.0; SMILES CC[C@H](C)[C@@H]1NC(=O)[C@H](CC(=O)O)NC(=O)[C@H](C)N(C)C(=O)C[C@@H](C(=O)N2CCCC2)NC(=O)[C@H](Cc2c[nH]c3ccccc23)NC(=O)[C@H](CC(=O)O)NC(=O)[C@H](Cc2c[nH]c3ccccc23)NC(=O)[C@H](Cc2ccc(O)cc2)NC(=O)[C@H](CC(=O)O)NC(=O)[C@H](Cc2ccccc2)NC(=O)[C@H](Cc2c[nH]c3ccccc23)NC1=O) [PP17]",< 0.06 µM,< 0.06 µM,0.3 µM,0.7 µM,0.5 µM,0.3 µM
"XNSWYINIWGHD (HELM PEPTIDE1{[meA].N.S.W.Y.I.N.I.W.G.H.D.[C1CCN([*:1])C1]}$PEPTIDE1,PEPTIDE1,1:R1-12:R3$$$V2.0; SMILES CC[C@H](C)[C@@H]1NC(=O)[C@H](CC(N)=O)NC(=O)[C@H]([C@@H](C)CC)NC(=O)[C@H](Cc2ccc(O)cc2)NC(=O)[C@H](Cc2c[nH]c3ccccc23)NC(=O)[C@H](CO)NC(=O)[C@H](CC(N)=O)NC(=O)[C@H](C)N(C)C(=O)C[C@@H](C(=O)N2CCCC2)NC(=O)[C@H](Cc2c[nH]cn2)NC(=O)CNC(=O)[C@H](Cc2c[nH]c3ccccc23)NC1=O) [PP15]",17.4 µM,8.5 µM,9.5 µM,22 µM,5.6 µM,31 µM
"XNFSNSWYNIWD (HELM PEPTIDE1{[meA].N.F.S.N.S.W.Y.N.I.W.D.[C1CCN([*:1])C1]}$PEPTIDE1,PEPTIDE1,1:R1-12:R3$$$V2.0; SMILES CC[C@H](C)[C@@H]1NC(=O)[C@H](CC(N)=O)NC(=O)[C@H](Cc2ccc(O)cc2)NC(=O)[C@H](Cc2c[nH]c3ccccc23)NC(=O)[C@H](CO)NC(=O)[C@H](CC(N)=O)NC(=O)[C@H](CO)NC(=O)[C@H](Cc2ccccc2)NC(=O)[C@H](CC(N)=O)NC(=O)[C@H](C)N(C)C(=O)C[C@@H](C(=O)N2CCCC2)NC(=O)[C@H](Cc2c[nH]c3ccccc23)NC1=O) [PP16]",> 62.1 µM,52.4 µM,38.1 µM,42.2 µM,20.6 µM,30.8 µM
